We go through 1 molecule from patent publication US20220289854A1.

This test addresses mouse CX3CR1 (mouse). The test is described as follows: flow cytometry titration on Jurkat cells transfected with mCX3CR1; goat anti-mIgG PE. Background: In flow cytometry, cells or beads pass a laser one at a time.

B1: 455.1C11 anti-mouse CX3CR1 monoclonal antibody (antibody, V domains shown)
VH: QVQLVETGGGLVRPGNSLKLSCVTSGFTFSNYRMHWLRQFPGKRLEWIAVIAFKSDKFGANYAESVKGRFAISRDDSKNSVYLEMSRLREEDTATYFCSRDGNGPFDYWGQGTTLTVSS
VL: DIVMSQSPSSLTVSVGEKVTMSCKSSQSLLYSGNQKSYLAWYQQKPGQSPRLLIYWASTRESGVPDRFTGSGSGTDFTLTISGVKAEDLAVYYCQRYYGYPRTFGGGTKLEIK
On to B1, for which the EC50 (usually the concentration giving half of the maximal effect) worked out at 0.102 µg/mL.
